In data set [1] the target is T1, Tau441 (longest isoform of tau) (human, UniProt P10636-8 1-441). Briefly: competition.
For data set [2], the target named is T1, Tau441 (longest isoform of tau). In words: competition. The source holds these as a separate data set.
For data set [3], the target named is T2, SARS-CoV-2 nucleocapsid protein (NP) (SARS-CoV-2, UniProt P0DTC9 1-419). Briefly: MST.
The target of data set [4] is T3, thrombin (Tb) (UniProt P00734;P00734 328-363;364-622). Briefly: 0.1 ng/mL thrombin.
In data set [5] the target is T3, thrombin (Tb). In words: thrombin 0.02-20 pg/mL in water.
The target of data set [6] is T2, SARS-CoV-2 nucleocapsid protein (NP). Briefly: MST. The source holds these as a separate data set.

Read-outs that look alike come from different tables or passages of the source.

Regarding CCTGTCAGGTCTTTGACGAGGCTTTTCTTC (ssDNA, 3' C3 spacer) [Tau aptamer (core)], the binding result in data set [1] is recorded as “binds”. As for CGCTTACGACAATATTCCTTAGGGGCACCGCTACATTGACACATCCAGC (ssDNA, 3' C3 spacer) [N9-Apt], the binding result in data set [2] and in data set [4] was “no binding” each time. Besides, in data set [3], the binding signal was > 5 fold affinity vs Nor-Apt. For AGTCCGTGGTAGGGCAGGTTGGGGTGACT (ssDNA, 3' C3 spacer) [thrombin aptamer 29 nt], the binding result in data set [5] is listed as “binds”.

B1: Nor-Apt (ssDNA)
DNA: GCTGGATGTCGCTTACGACAATATTCCTTAGGGGCACCGCTACATTGACACATCCAGC
modifications: 3' C3 spacer
As for B1, in data set [6], the binding result is “binds”.

(Values after article doi:10.1101/2025.11.02.686180.)
